Assay results from US20240254229A1 (Molecular Partners, published 2024).

What was measured:
[1] = molecular target: T1, hCD33 and hCD123 immobilized simultaneously on one switchSENSE chip (ratio 2:1, CD33:CD123) (human, UniProt P20138 18-259; P26951 19-305, limits assumed); assay: switchSENSE, CD33 and CD123 on one chip; slow phase (avidity); slow phase (avidity)
T1 construct: Not a complex: two separate ligands on one surface; used for avidity values and for off-rates; also called both ligands; both targets attached to the surface of the chip

[2] = molecular target: T2, extracellular domain of human CD70 (SEQ ID NO: 89), hCD70-Fc-trimer, ACRO Biosystems (human, UniProt P32970 52-193, chemically biotinylated where the biotinylated form was used); assay: SPR (ProteOn XPR36), target on GLC chip
T2 construct: also called human CD70-Fc-trimer; Bio.CD70
T2 sequence: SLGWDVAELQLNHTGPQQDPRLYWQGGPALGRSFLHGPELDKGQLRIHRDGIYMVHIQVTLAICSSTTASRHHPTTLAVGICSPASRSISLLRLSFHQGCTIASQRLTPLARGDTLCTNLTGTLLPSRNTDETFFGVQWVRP

[3] = molecular target: T3, human serum albumin (human, UniProt P02768 25-609); assay: SPR (ProteOn XPR36), target on GLC chip
T3 construct: also called HSA; SA

[4] = molecular target: T4, hCD33 (recombinant, construct not stated) (human, UniProt P20138 18-259, limits assumed); assay: switchSENSE, CD33 and CD123 on one chip; kon to CD33
T4 construct: also called CD33 (Ligand 1)
Procedure: (§1) The designed ankyrin repeat proteins: DARPin® protein #20, DARPin® protein #21, DARPin® protein #22, DARPin® protein #27, DARPin® protein #40 and DARPin® protein #41 were tested in a concentration of 0.16 and 64 nM (in a buffer PE140 containing 10 mM Na2HPO4/NaH2PO4, 140 mM NaCl, 0.05% Tween20, 50 μM EDTA, 50 μM EGTA) for binding against two ligands hCD33 and hCD123, which both were immobilized simultaneously to DNA nanolevers, on the surface, at a pre-defined ratio (2:1, CD33:CD123) and 10% density (100:50) on an ADP-48-1-0 chip, where 100% density 1000 receptors/μm2 (preincubated R1-B48-CD123 and G1-A48-CD33 (100 nM) diluted in cNL-48 (dark)). Briefly the following steps were performed: [0724] Conjugation. Amine coupling of the two ligands (CD33 and CD123) to the DNA nanolever (A48, B48, respectively) and purification of the conjugates using the proFIRE® solution (Dynamic Biosensors GmbH) at 25° C. [0725] Evaluation of all the combined affinity and avidity of all different proteins to both ligands attached on the surface of an ADP chip using a DRX+ instrument (dynamic BIOSENSORS). [0726] Statistical analysis (repeatability from 2 to 5 times) including regeneration of the chip surface every concentration analyzed and long dissociation times and data were fitted using a bi-exponential global fit.

[5] = molecular target: T1, hCD33 and hCD123 immobilized …; assay: switchSENSE, hCD33 and hCD123 co-immobilised 2:1; panel headed CD123, column KD2 (avidity, simultaneous binding of CD33 and CD123 per paragraph 696)
Procedure: as §1

[6] = molecular target: T1, hCD33 and hCD123 immobilized …; assay: switchSENSE, CD33 and CD123 on one chip; fast phase (affinity); fast phase (affinity)
Procedure: as §1

[7] = molecular target: T5, biotinylated extracellular domain of human CD123 (SEQ ID NO: 88), Fc and Avi tagged (human, UniProt P26951 19-303, biotinylated with BirA-GST (Avi tag)); assay: SPR (ProteOn XPR36), target on GLC chip, DARPin as analyte
T5 construct: also called hCD123
T5 sequence: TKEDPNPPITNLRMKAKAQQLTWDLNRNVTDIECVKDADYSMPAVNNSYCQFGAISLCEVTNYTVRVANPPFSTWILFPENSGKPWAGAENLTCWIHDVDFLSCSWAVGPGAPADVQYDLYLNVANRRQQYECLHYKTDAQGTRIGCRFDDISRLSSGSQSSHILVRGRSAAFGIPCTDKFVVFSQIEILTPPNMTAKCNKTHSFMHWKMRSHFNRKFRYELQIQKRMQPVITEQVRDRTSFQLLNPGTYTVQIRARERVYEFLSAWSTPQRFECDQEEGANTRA

T3 sequence (P02768 25-609 limits assumed): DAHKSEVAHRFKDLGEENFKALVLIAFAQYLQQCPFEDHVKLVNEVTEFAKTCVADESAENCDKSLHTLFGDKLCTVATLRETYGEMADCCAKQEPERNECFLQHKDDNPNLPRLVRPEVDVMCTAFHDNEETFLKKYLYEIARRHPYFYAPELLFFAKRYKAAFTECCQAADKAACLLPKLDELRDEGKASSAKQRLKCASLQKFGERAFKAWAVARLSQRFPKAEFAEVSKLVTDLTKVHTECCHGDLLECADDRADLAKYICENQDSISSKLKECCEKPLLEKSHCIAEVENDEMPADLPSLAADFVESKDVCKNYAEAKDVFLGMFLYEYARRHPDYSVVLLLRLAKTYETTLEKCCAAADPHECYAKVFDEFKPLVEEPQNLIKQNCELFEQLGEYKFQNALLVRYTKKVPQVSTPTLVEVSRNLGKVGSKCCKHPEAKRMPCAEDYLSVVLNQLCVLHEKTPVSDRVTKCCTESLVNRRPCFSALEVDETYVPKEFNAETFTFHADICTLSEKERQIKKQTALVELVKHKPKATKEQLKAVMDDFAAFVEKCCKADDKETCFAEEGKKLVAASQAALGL
T4 sequence (P20138 18-259 limits assumed): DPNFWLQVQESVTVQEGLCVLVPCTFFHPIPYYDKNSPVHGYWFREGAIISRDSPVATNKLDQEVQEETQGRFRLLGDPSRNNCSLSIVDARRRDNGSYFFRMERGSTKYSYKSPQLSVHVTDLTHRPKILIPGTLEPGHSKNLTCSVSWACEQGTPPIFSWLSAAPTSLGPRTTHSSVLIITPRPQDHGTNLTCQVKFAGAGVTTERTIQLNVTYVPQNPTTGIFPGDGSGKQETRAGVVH

koff [1]: ~0.001 s⁻¹
kon [4]: ~1e+06 M⁻¹ s⁻¹
Kd [5]: 0.3 nM
koff [6]: ~0.01 s⁻¹
Kd [7]: 19 nM
B1: DARPin® protein #27 (designed binder)
chain: DLGKKLLEAALEGQLDEVRELLKAGADVNAKDQEGYTPLHLAAALGHLEIVEVLLKAGADVNAKDSIGRTPLHLAAYKGHLEIVEVLLKAGADVNAQDLLGETPADLAAEQGHQDIAEVLQKAAGSPTPTPTTPTPTPTTPTPTPTGSDLGVKLLLAASRGQLDEVRILLKAGADVNAKDIDEGYTPLHIAAYYGHLEIVEVLLKAGADVNAKDRYGKTPLHLAAISGHLEIVEVLLKAGADVNAQDDKGDTPADLAADYGHQDIAEVLQKAAGSPTPTPTTPTPTPTTPTPTPTGSDLGQKLLEAAWAGQDDEVRELLKAGADVNAKNSRGWTPLHTAAQTGHLEIFEVLLKAGADVNAKDDKGVTPLHLAAALGHLEIVEVLLKAGADVNAQDSWGTTPADLAAKYGHEDIAEVLQKAA
notes: CD123-CD33-CD3; also called αCD123-aCD33-αCD3_1; not shown: N-terminal His-tag
binding result [2]: no binding (tested: 100 nM (highest concentration))
binding result [3]: no binding (tested: 100 nM (highest concentration))
